This note sets out measurements from paper PMC3660092.

The target of this assay is YFP-IP3R type 1 (UniProt P11881). Nature of the assay: FRET or BRET. (In general: Bioluminescence resonance energy transfer reports proximity on the nanometre scale.)
UniProt P11881, sequence (P11881 whole entry): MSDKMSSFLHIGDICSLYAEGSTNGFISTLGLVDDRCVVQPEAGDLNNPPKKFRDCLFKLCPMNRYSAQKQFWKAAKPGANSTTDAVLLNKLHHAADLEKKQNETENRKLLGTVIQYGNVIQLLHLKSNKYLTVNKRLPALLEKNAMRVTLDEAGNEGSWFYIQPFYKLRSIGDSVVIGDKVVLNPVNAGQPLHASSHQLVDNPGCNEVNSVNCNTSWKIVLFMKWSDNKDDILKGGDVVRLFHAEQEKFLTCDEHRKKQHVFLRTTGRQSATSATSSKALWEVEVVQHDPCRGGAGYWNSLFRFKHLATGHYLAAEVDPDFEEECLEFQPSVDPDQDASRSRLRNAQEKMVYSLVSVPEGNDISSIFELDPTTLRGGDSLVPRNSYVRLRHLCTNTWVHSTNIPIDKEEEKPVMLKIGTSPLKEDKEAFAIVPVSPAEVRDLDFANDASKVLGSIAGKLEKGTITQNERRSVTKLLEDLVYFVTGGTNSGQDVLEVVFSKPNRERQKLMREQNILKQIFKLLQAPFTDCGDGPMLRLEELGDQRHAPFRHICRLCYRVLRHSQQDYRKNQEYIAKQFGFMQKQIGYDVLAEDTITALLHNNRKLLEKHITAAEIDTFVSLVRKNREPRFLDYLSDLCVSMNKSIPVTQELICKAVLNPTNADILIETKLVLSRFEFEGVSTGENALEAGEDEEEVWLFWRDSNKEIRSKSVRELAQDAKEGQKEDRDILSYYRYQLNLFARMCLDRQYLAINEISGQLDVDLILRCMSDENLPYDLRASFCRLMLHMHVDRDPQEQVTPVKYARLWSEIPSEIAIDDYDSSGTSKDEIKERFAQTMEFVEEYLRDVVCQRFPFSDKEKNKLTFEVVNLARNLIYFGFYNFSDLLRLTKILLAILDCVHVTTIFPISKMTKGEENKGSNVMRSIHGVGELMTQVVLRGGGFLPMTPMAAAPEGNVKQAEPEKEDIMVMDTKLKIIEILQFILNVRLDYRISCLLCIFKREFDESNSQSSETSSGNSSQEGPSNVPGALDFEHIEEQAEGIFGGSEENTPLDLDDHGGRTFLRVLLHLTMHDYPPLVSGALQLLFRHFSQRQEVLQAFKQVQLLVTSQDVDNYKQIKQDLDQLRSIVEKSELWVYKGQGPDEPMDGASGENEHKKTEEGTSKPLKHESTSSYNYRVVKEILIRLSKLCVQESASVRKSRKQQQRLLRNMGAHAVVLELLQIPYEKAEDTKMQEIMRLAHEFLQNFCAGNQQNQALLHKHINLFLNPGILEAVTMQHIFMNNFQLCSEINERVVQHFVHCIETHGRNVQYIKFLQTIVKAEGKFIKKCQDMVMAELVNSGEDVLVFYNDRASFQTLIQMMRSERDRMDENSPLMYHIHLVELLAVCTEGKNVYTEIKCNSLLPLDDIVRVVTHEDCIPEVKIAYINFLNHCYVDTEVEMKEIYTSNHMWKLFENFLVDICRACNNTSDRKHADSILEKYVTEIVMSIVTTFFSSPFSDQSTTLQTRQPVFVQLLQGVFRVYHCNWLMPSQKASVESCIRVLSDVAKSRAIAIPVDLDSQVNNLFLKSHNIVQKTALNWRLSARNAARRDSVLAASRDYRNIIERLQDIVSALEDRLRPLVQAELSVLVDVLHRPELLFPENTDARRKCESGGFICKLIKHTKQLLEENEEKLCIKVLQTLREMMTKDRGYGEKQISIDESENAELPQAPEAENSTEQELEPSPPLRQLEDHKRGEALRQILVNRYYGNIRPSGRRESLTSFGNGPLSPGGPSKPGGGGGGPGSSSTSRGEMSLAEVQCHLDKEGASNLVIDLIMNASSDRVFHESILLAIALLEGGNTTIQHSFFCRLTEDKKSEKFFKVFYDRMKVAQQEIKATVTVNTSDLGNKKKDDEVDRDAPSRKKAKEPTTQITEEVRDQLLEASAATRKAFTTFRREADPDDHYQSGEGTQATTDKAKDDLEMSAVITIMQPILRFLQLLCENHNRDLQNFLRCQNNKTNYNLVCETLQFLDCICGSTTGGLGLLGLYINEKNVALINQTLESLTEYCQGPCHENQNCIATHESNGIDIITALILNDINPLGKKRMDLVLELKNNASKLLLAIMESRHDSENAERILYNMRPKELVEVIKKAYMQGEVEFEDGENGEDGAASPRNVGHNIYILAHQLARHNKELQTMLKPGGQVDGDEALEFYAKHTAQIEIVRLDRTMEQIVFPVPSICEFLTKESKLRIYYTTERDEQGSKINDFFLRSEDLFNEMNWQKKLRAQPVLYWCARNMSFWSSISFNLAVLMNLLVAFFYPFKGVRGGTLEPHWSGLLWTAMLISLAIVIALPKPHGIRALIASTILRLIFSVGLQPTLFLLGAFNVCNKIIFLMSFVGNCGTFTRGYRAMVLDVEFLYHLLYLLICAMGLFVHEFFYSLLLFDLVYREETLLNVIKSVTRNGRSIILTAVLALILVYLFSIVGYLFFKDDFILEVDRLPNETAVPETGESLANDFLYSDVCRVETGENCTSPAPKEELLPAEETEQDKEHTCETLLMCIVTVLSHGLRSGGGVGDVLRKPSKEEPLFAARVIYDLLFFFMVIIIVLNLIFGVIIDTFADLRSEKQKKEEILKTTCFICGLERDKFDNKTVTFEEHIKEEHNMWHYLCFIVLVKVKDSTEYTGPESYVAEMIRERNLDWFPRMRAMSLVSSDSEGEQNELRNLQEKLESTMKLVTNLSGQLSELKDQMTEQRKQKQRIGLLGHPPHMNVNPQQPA

On to “CFP-Bcl-2 (from UniProt P10415 1-239) (natural protein)”, for which the increase of the CFP signal after YFP bleaching (FRET efficiency) is 28%.
